Article PMC7997005, “Dynamic interplay between the co-opted Fis1 mitochondrial fission protein and membrane contact site proteins in supporting tombusvirus replication” (PLoS Pathogens, 2021)

Molecular target: T1, TBSV Flag-p33 replication protein (tomato bushy stunt virus (TBSV), UniProt P15962 1-296)
T1 construct: TBSV p33 replication protein; co-expressed and co-purified with Flag-p92pol; source: yeast, expressed from a plasmid, in detergent-solubilized membrane fraction
T1 sequence: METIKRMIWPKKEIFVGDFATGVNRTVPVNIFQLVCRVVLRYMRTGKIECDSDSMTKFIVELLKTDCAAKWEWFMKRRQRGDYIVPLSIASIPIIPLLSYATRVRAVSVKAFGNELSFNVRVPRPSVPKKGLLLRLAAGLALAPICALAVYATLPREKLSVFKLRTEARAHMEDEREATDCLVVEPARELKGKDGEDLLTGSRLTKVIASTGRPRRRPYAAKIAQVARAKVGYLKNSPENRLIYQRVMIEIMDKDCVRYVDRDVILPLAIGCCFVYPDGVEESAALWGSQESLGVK
Test: co-IP; Flag-affinity purification of Flag-tagged replication proteins (TBSV Flag-p33 + Flag-p92pol or CIRV Flag-p36 + Flag-p95pol) from the detergent-solubilized membrane fraction of yeast; samples cross-linked with formaldehyde; co-purified His6-tagged proteins detected with anti-His antibody; WT, fis1Δ, Fis1p- or Dnm1-ZZ-over-expressing yeast; cycloheximide time course
Conditions: partners not purified

B1: yeast His6-Fis1p (natural protein, S. cerevisiae, UniProt P40515 1-155, looked up)
chain: MTKVDFWPTLKDAYEPLYPQQLEILRQQVVSEGGPTATIQSRFNYAWGLIKSTDVNDERLGVKILTDIYKEAESRRRECLYYLTIGCYKLGEYSMAKRYVDTLFEHERNNKQVGALKSMVEDKIQKETLKGVVVAGGVLAGAVAVASFFLRNKRR
notes: Fis1p mitochondrial fission 1 protein, S. cerevisiae; also called HisScFis1; source: yeast, expressed from a plasmid, in detergent-solubilized membrane fraction
fold reduction of co-purified Fis1p when Dnm1p is co-expressed, against yeast without Dnm1p over-expression: ~8 fold

B2: yeast His6-Sac1p (enzyme, S. cerevisiae, UniProt P32368 1-623, looked up)
chain: MTGPIVYVQNADGIFFKLAEGKGTNDAVIHLANQDQGVRVLGAEEFPVQGEVVKIASLMGFIKLKLNRYAIIANTVEETGRFNGHVFYRVLQHSIVSTKFNSRIDSEEAEYIKLLELHLKNSTFYFSYTYDLTNSLQRNEKVGPAASWKTADERFFWNHYLTEDLRNFAHQDPRIDSFIQPVIYGYAKTVDAVLNATPIVLGLITRRSIFRAGTRYFRRGVDKDGNVGNFNETEQILLAENPESEKIHVFSFLQTRGSVPIYWAEINNLKYKPNLVLGENSLDATKKHFDQQKELYGDNYLVNLVNQKGHELPVKEGYESVVHALNDPKIHYVYFDFHHECRKMQWHRVKLLIDHLEKLGLSNEDFFHKVIDSNGNTVEIVNEQHSVVRTNCMDCLDRTNVVQSVLAQWVLQKEFESADVVATGSTWEDNAPLLTSYQNLWADNADAVSVAYSGTGALKTDFTRTGKRTRLGAFNDFLNSASRYYQNNWTDGPRQDSYDLFLGGFRPHTASIKSPFPDRRPVYIQLIPMIICAALTVLGATIFFPKDRFTSSKNLLYFAGASIVLALSTKFMFKNGIQFVNWPKLVDVGFLVVHQTHDKEQQFKGLKYAQSPKFSKPDPLKRD
notes: Sac1p PI4P phosphatase, S. cerevisiae; source: yeast, expressed from a plasmid, in detergent-solubilized membrane fraction
fold of co-purified Sac1p, Fis1p-over-expressing against WT yeast: > 2 fold

B3: yeast His6-Osh6p (natural protein, S. cerevisiae, UniProt Q02201 1-448, looked up)
chain: MGSKKLTVGSDSHRLSKSSFSSNKSSHSATKDQPIDTDDIDEDDESGHNIILNIISQLRPGCDLTRITLPTFILEKKSMLERVTNQLQFPEFLLQAHSEKDPLKRFLYVMKWYLAGWHIAPKAVKKPLNPVLGEYFTAYWDLPNKQQAYYISEQTSHHPPECAYFYMIPESSIRVDGVVIPKSRFLGNSSAAMMDGSTVLQFLDIKDGNGKPEKYVLTQPNVYVRGILFGKMRIELGDHMIIKSPNFQADIEFKTKGYVFGTYDAIEGTVKDYDGNAYYEISGKWNDVMYLKDLKQPRSSPKVFLDTHKESPLRPKVRPLSEQGEYESRKLWKKVTDALAVRNHPVATEEKFQIEDHQRQLAKKRIEDGVEFHPKLFRRSKPGEDLDYCIYKNIPVDEDPEKQIRSILQIAPILPGQQFTDKFFIPAFEKIKSQKKMIENEKQNPAKQ
notes: source: yeast, expressed from a plasmid, in detergent-solubilized membrane fraction
fold of co-purified Osh6p, Fis1p-over-expressing against WT yeast: 3.5 fold more
fold of co-purified Osh6p, fis1Δ against WT yeast: ~4 fold less
